Experimental data: US20080193947A1, “Complementary Peptides For Beta-Amyloid 29-42 Peptide” (priority 2004, published 2008)
Where no end group is shown, it is not given here.

Tests used:
SH-SY5Y cells [1] = test: Cell toxicity assay (MTS) in presence of both the Aβ 1-42 and ApoE 270-287 peptides; type: cell-based, human; settings: 2 μM ApoE 270-287 + 100 μM Aβ 1-42 (ratio 1/50), 24 h, FIG. 9
Aβ 29-42 [2] = target: T1, Aβ 29-42 (Homo sapiens, UniProt P05067); type: biochemical; settings: for % of fusion after 15 minutes: 1/1 peptide ratio, room temperature, average of plateau (10-15 minutes) of three experiments, Aβ alone = 100%
SH-SY5Y cells [3] = test: Cell toxicity assay (MTS) of single peptides on human neuroblastoma cell line; type: cell-based; settings: 24 h, FIG. 7 / FIG. 8
Aβ 29-42 [4] = type: biochemical; settings: without Aβ 29-42; data not shown
From the text: (§1) In this leakage assay, performed according to the procedure described in Ellens et al. (Ellens, H., Bentz, J., and Szoka, F. C. (1985) Biochemistry 24, 3099-3106), a substance encapsulated in the liposomes is followed by fluorescence measurement. HPTS ([…]) and his quencher DPX (p-xylylenebis[pyridinium]bromide) were both encapsulated in the aqueous phase of the same liposomes. Liposomes were eluted on a Sephadex G75 column to remove the excess of HPTS and DPX.
(§2) Fluorescence was measured at room temperature using excitation and emission wavelengths of 450 nm and 512 nm, respectively. Leakage induced by the Aβ peptide was followed by measuring the dequenching of HPTS released into the medium. The percentage of release induced by the peptide was defined as Ft/Ftot×100, where Ft is the fluorescence signal measured at time t and Ftot is the signal obtained after lysing the vesicles with 0.5% Triton X100.

Aβ 29-42 [5] = target: T1, Aβ 29-42; type: biochemical; set-up: made in house; host or cells: chemical peptide synthesis (no expression host); settings: for HPTS fluorescence signal when added to Aβ 29-42 (inhibition of membrane destabilization): independently of the mutant/Aβ 29-42 molar ratio, Aβ peptide/lipid molar ratio 0.4, FIGS. 4a and b
From the text: as §1, §2

[6] = target: T2, β-Amyloid peptidic fragment 29-42 (Aβ 29-42) (C-terminal and N-terminal blocked (N-amidated and C-acetylated) (so in the source)); test: cell-based or functional assay
[7] = target: T2, β-Amyloid peptidic fragment 29-42 (Aβ …); test: cell-based or functional assay; remark: listed apart in the source

## Ac-EDMQRQWAGLVEKVQAAV-NH2 [ApoE WT]
SH-SY5Y cells [1]
  cell viability in presence of Aβ 1-42 and the complementary peptide: 80%
Aβ 29-42 [2]
  % of fusion after 15 minutes: 89%
Aβ 29-42 [2]; FIG. 3, added to Aβ 29-42 at molar ratio of 1, Aβ peptide/lipid ratio 0,4 (mol/mol)
  fluorescence signal (lipid fusion), Aβ 29-42 alone taken as 100% fusion reference: about 91%
SH-SY5Y cells [3]
  cell toxicity (viability against increasing peptide concentrations): induces cell toxicity only at 100 μM

## Aβ 1-40: β-Amyloid 1-40 peptide
SH-SY5Y cells [3]
  cell toxicity (viability against increasing peptide concentrations): does not induce any

## EDMQRQLAGVVEKVQAAV (also: N- and C-terminal blocking) [ApoE mutant 11, peptide derived from ApoE WT]
Aβ 29-42 [4]
  destabilization effects of the peptide alone on the membranes: no destabilization effects on the membranes
Aβ 29-42 [5]
  HPTS fluorescence signal when added to Aβ 29-42 (inhibition of membrane destabilization): much weaker

## EDMQRQMAGLMEKMQAAV (also: N- and C-terminal blocking) [ApoE mutant 413, peptide derived from ApoE WT]
Aβ 29-42 [4]
  destabilization effects of the peptide alone on the membranes: no destabilization effects on the membranes
Aβ 29-42 [5]
  HPTS fluorescence signal when added to Aβ 29-42 (inhibition of membrane destabilization): much weaker

## GAIIGLMVGGVVIA (listed as Homo sapiens) [Aβ 29-42, C-terminal part of the β-Amyloid protein, tilted fusion peptide]
Aβ 29-42 [2]
  % of fusion after 15 minutes: 100%
Aβ 29-42 [5]; 1/1 peptide ratio, room temperature, average of plateau (10-15 minutes) of three experiments
  % of leakage after 15 minutes: 28%

## Ac-EDMQRQMAGLMEKMQAAV-NH2 [ApoE mutant 413]
[6]
  % of fusion after 15 minutes (R18 lipid fusion of SUV induced by Aβ 29-42, 1/1 peptide ratio): 21%
  % of leakage after 15 minutes (HPTS/DPX liposome leakage induced by Aβ 29-42, 1/1 peptide ratio): 4%
[7]
  R18 fluorescence signal of lipid fusion against Aβ 29-42 alone as 100% (FIG. 3, molar ratio of 1): 25%

## EDMQRQWAGLVEKVQAAV (not fully specified (N-terminus, C-terminus)) [wild type Apolipoprotein E3 peptide 270-287 (ApoE WT)]
[6]
  % of fusion after 15 minutes (R18 lipid fusion of SUV induced by Aβ 29-42, 1/1 peptide ratio): 89%
[7]
  R18 fluorescence signal of lipid fusion against Aβ 29-42 alone as 100% (FIG. 3, molar ratio of 1): ~91%

## Ac-EDMQRQLAGVVEKVQAAV-NH2 [ApoE mutant 11]
[6]
  % of fusion after 15 minutes (R18 lipid fusion of SUV induced by Aβ 29-42, 1/1 peptide ratio): 17%
  % of leakage after 15 minutes (HPTS/DPX liposome leakage induced by Aβ 29-42, 1/1 peptide ratio): 0%
[7]
  R18 fluorescence signal of lipid fusion against Aβ 29-42 alone as 100% (FIG. 3, molar ratio of 1): 23%
